Test results taken from PMC4554727, “Flexible Structure of Peptide-Bound Filamin A Mechanosensor Domain Pair 20–21” (PLoS ONE, 2015).

Assays:
[1] = molecular target: T1, IgFLNaΔA20–21 (filamin A domains 20–21 lacking the first β strand of domain 20, residues 2151–2329) (Homo sapiens (Human), UniProt P21333); assay: NMR HSQC titration, crystal structure
T1 chain: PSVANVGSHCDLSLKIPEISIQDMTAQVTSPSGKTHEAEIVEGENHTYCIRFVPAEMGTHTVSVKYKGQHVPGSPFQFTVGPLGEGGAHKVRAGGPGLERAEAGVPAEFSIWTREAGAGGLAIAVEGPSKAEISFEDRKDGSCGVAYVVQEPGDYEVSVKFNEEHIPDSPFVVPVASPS

[2] = molecular target: T2, IgFLNa20–21 (filamin A immunoglobulin-like domains 20–21, residues 2141–2329) (Homo sapiens (Human), UniProt P21333); assay: SAXS
T2 chain: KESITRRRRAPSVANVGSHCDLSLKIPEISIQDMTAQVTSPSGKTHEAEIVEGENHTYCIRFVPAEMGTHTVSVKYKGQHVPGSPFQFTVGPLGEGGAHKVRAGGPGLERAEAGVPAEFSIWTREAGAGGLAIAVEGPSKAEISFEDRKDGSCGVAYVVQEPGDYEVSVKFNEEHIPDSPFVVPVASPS

[3] = molecular target: T3, IgFLNa20–21 (filamin A immunoglobulin-like domains 20–21, residues 2141–2329) (UniProt P21333 2141-2329); assay: SAXS; 277 K; 20 mM Tris pH 8.0, 100 mM NaCl, 10 mM DTT; 1–4 mg/ml IgFLNa20–21 or IgFLNa∆A20–21; two times molar excess of migfilin peptide where added; conditions: both partners purified
T3 construct: Cloned into a modified pGEX vector; also called FLNa mechanosensor domain pair 20–21; source: E. coli BL21, purified (Glutathione Sepharose, TEV cleavage, size-exclusion chromatography)
T3 sequence (looked up): T2 chain

[4] = molecular target: T4, IgFLNaΔA20–21 (filamin A domains 20–21 lacking the first β strand of domain 20, residues 2151–2329) (UniProt P21333 2151-2329); assay: as above; conditions: both partners purified
T4 construct: filamin A (FLNa), Ig-like domains 20–21 without the A strand of domain 20 (2141–2150), residues 2151–2329; residues 2151–2235 form domain ΔA20 and 2236–2329 domain 21; 15N (and 13C) isotope-labelled for the NMR experiments; same construct; also called IgFLNa∆A20–21; IgFLNΔAa20–21; source: E. coli BL21, purified (Glutathione Sepharose, TEV cleavage, size-exclusion chromatography)
T4 sequence (looked up): T1 chain

Measured: binding result

B1: migfilin peptide (residues 5–28) (peptide)
peptide: PEKRVASSVFITLAPPRRDVAVAE
notes: migfilin, residues 5–28; it is removed here; Only residues 6–20 are seen in the crystal structure; also called migfilin^5–28 peptide; migfilin-derived peptide; source: bought: EZBiolab (Westfield, IN)
binds: [1] | [2] | [3] | [4]
